Publication PMC10397247
One block for each binder: values may come before it.

Legend:
[1] = molecular target: T1, 4H918-bA; experiment: two-hybrid library CCNG1;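 further: natural log of median RNA to DNA barcode read ratio; higher means stronger binding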
T1 chain: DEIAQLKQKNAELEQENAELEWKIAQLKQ

[2] = molecular target: T2, 4H754-bA; experiment: two-hybrid library CCNG1;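 further: natural log of median RNA to DNA barcode read ratio; higher means stronger binding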
T2 chain: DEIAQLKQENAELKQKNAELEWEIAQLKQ

[3] = molecular target: T3, 4H683-bA; experiment: two-hybrid library CCNG1;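 further: natural log of median RNA to DNA barcode read ratio; higher means stronger binding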
T3 chain: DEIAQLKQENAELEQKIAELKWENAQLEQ

[4] = molecular target: T4, 4H855-bA; experiment: two-hybrid library CCNG1;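 further: natural log of median RNA to DNA barcode read ratio; higher means stronger binding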
T4 chain: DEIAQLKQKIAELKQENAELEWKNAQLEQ

[5] = molecular target: T5, 4H4073-bA; experiment: two-hybrid library CCNG1
T5 chain: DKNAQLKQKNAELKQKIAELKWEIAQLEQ

[6] = molecular target: T6, 4H780-bA; experiment: two-hybrid library CCNG1
T6 chain: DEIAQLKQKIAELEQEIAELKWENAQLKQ

[7] = molecular target: T7, 4H953-bA; experiment: two-hybrid library CCNG1
T7 chain: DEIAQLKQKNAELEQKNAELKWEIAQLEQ

[8] = molecular target: T8, 4H575-bA; experiment: two-hybrid library CCNG1
T8 chain: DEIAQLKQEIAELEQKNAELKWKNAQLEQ

[9] = molecular target: T9, 4H457-bA; experiment: two-hybrid library CCNG1
T9 chain: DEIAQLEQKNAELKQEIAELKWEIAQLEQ

[10] = molecular target: T10, P3mSN; experiment: two-hybrid library CCNG1
T10 chain: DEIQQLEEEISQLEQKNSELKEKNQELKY

[11] = molecular target: T11, 4H797-bA; experiment: two-hybrid library CCNG1
T11 chain: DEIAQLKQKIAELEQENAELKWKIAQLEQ

[12] = molecular target: T12, 4H949-bN; experiment: two-hybrid library CCNG1
T12 chain: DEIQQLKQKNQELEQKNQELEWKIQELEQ

[13] = molecular target: T13, 4H968-bA; experiment: two-hybrid library CCNG1
T13 chain: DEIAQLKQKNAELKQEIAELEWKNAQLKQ

[14] = molecular target: T14, 4H2705-AA; experiment: two-hybrid library CCmax; details: mean of both orientations
T14 chain: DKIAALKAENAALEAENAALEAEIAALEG

[15] = molecular target: T15, 4H2873-AA; experiment: two-hybrid library CCmax; details: mean of both orientations
T15 chain: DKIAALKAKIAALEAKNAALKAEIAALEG

[16] = molecular target: T16, 4H3595-AA; experiment: two-hybrid library CCmax
T16 chain: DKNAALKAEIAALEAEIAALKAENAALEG

[17] = molecular target: T17, 4H816-AA; experiment: two-hybrid library CCmax; details: mean of both orientations
T17 chain: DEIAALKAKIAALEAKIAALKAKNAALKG

[18] = molecular target: T18, 4H775-AA; experiment: two-hybrid library CCmax; details: mean of both orientations
T18 chain: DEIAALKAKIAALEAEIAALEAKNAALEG

[19] = molecular target: T19, 4H3625-AA; experiment: two-hybrid library CCmax; details: mean of both orientations
T19 chain: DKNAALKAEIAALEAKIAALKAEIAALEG

[20] = molecular target: T20, 4H87-AA; experiment: two-hybrid library CCmax
T20 chain: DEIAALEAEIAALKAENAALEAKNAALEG

[21] = molecular target: T21, 4H2512-AA; experiment: two-hybrid library CCmax; details: mean of both orientations
T21 chain: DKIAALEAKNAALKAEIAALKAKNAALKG

[22] = molecular target: T22, 4H3409-AA; experiment: two-hybrid library CCmax
T22 chain: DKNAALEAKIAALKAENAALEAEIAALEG

[23] = molecular target: T23, 4H3134-AA; experiment: two-hybrid library CCmax; details: mean of both orientations
T23 chain: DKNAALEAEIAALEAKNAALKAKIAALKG

[24] = molecular target: T24, 4H2758-AA; experiment: two-hybrid library CCmax; details: mean of both orientations
T24 chain: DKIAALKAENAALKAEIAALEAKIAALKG

[25] = molecular target: T25, 4H233-AA; experiment: two-hybrid library CCmax
T25 chain: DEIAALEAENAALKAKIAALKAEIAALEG

[26] = molecular target: T26, 4H2687-AA; experiment: two-hybrid library CCmax; details: mean of both orientations
T26 chain: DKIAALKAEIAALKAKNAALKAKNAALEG

[27] = molecular target: T27, 4H510-AA; experiment: two-hybrid library CCmax; details: mean of both orientations
T27 chain: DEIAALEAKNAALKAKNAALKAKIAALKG

[28] = molecular target: T28, 4H390-AA; experiment: two-hybrid library CCmax; details: mean of both orientations
T28 chain: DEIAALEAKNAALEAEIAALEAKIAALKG

[29] = molecular target: T29, 4H3940-AA; experiment: two-hybrid library CCmax; details: mean of both orientations
T29 chain: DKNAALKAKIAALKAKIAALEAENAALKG

[30] = molecular target: T30, 4H2985-AA; experiment: two-hybrid library CCmax; details: mean of both orientations
T30 chain: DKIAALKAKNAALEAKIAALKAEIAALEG

[31] = molecular target: T31, 4H2646-AA; experiment: two-hybrid library CCmax; details: mean of both orientations
T31 chain: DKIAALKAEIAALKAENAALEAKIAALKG

[32] = molecular target: T32, 4H278-AA; experiment: two-hybrid library CCmax; details: mean of both orientations
T32 chain: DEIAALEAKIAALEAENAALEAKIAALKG

[33] = molecular target: T33, 4H575-bH; experiment: two-hybrid library CCNG1
T33 chain: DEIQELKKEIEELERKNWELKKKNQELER

[34] = molecular target: T34, 4H3354-bH; experiment: two-hybrid library CCNG1
T34 chain: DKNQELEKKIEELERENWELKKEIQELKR

[35] = molecular target: T35, 4H754-bH; experiment: two-hybrid library CCNG1
T35 chain: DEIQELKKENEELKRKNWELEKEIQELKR

[36] = molecular target: T36, 4H855-bH; experiment: two-hybrid library CCNG1
T36 chain: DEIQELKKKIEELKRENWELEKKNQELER

[37] = molecular target: T37, 4H797-bH; experiment: two-hybrid library CCNG1
T37 chain: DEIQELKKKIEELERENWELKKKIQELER

[38] = molecular target: T38, 4H457-bH; experiment: two-hybrid library CCNG1
T38 chain: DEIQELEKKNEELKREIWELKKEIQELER

[39] = molecular target: T39, 4H3112-bH; experiment: two-hybrid library CCNG1
T39 chain: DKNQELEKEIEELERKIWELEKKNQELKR

[40] = molecular target: T40, 4H953-bH; experiment: two-hybrid library CCNG1
T40 chain: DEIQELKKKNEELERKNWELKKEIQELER

[41] = molecular target: T41, 4H2586-bH; experiment: two-hybrid library CCNG1
T41 chain: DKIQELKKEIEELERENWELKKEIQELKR

[42] = molecular target: T42, 4H3010-bH; experiment: two-hybrid library CCNG1
T42 chain: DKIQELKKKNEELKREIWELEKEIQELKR

[43] = molecular target: T43, 4H3427-bH; experiment: two-hybrid library CCNG1
T43 chain: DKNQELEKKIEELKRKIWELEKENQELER

[44] = molecular target: T44, 4H968-bH; experiment: two-hybrid library CCNG1
T44 chain: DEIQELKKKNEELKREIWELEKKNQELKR

[45] = molecular target: T45, 4H2627-bH; experiment: two-hybrid library CCNG1
T45 chain: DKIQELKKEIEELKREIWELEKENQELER

[46] = molecular target: T46, 4H3926-bH; experiment: two-hybrid library CCNG1
T46 chain: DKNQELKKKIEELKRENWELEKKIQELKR

[47] = molecular target: T47, 4H4073-bH; experiment: two-hybrid library CCNG1
T47 chain: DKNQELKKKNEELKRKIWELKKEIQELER

[48] = molecular target: T48, 4H2673-bH; experiment: two-hybrid library CCNG1
T48 chain: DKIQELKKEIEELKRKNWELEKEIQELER

[49] = molecular target: T49, 4H370-bN; experiment: two-hybrid library CCNG1
T49 chain: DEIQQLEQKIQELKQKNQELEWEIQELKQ

[50] = molecular target: T50, 4H346-bH; experiment: two-hybrid library CCNG1
T50 chain: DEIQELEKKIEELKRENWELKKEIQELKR

[51] = molecular target: T51, 4H683-bH; experiment: two-hybrid library CCNG1
T51 chain: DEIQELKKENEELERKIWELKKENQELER

[52] = molecular target: T52, 4H780-bH; experiment: two-hybrid library CCNG1
T52 chain: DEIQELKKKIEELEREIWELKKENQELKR

[53] = molecular target: T53, 4H918-bH; experiment: two-hybrid library CCNG1
T53 chain: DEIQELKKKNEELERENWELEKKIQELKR

[54] = molecular target: T54, 4H2702-bH; experiment: two-hybrid library CCNG1
T54 chain: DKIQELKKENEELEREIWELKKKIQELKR

interaction score [1]: -0.789 | interaction score [2]: -1.31 | interaction score [3]: -0.684 | interaction score [4]: -1.17 | interaction score [5]: -0.968 | interaction score [6]: -1.4 | interaction score [7]: -1.91 | interaction score [8]: -1.51 | interaction score [9]: -1.06 | interaction score [10]: -4.32 | interaction score [11]: -1.27 | interaction score [12]: -1.71 | interaction score [13]: -1.01
Binder: DKNAQLKQKNAELKQKIAELKWEIAQLEQ [4H4073-bA]

interaction score [14]: 1 | interaction score [15]: -0.478 | interaction score [16]: 0.594 | interaction score [17]: -0.563 | interaction score [18]: -1.43 | interaction score [19]: -0.183 | interaction score [20]: -1.84 | interaction score [21]: 0.368 | interaction score [22]: 1.43 | interaction score [23]: -0.974 | interaction score [24]: 1.97 | interaction score [25]: 1.43 | interaction score [26]: -1.45 | interaction score [27]: -1.24 | interaction score [28]: 2.39 | interaction score [29]: -1.57 | interaction score [30]: 0.682 | interaction score [31]: 1.88 | interaction score [32]: 1.7
Binder: DEIAALEAENAALKAKIAALKAEIAALEG [4H233-AA]

interaction score [33]: 0.499 | interaction score [34]: 0.825 | interaction score [35]: -0.599 | interaction score [36]: 0.679 | interaction score [37]: 0.65 | interaction score [38]: -0.749 | interaction score [39]: -1.96 | interaction score [40]: 0.313 | interaction score [41]: 1.34 | interaction score [42]: 0.779 | interaction score [43]: 0.762 | interaction score [44]: -0.864 | interaction score [45]: 0.688 | interaction score [46]: 1.73 | interaction score [47]: 0.357 | interaction score [48]: 1.76 | interaction score [49]: 0.548 | interaction score [50]: 0.563 | interaction score [51]: 0.126 | interaction score [52]: -1.12 | interaction score [53]: -0.131 | interaction score [54]: 0.0111
Binder: DKIQELKKEIEELERENWELKKEIQELKR [4H2586-bH]
